Data reported in publication PMC3566586 (Molecular Cell, 2010).
Numbering of substitutions follows the chain as printed. Where two headings read alike, the source gives them in different places.

Assays:
[1] = molecular target: Mcm1p(1-98);Yox1p full length (Saccharomyces cerevisiae;Saccharomyces …, UniProt P11746;P34161 1-98;1-385, |); test: immobilized template pull-down
[2] = molecular target: Mcm1p(1-98);Yox1p(N226Q) recombinant (Saccharomyces cerevisiae;Saccharomyces …, UniProt P11746;P34161 1-98;151-274, |N226Q); test: competition
Mcm1p(1-98) [3] = molecular target: T1, Mcm1p(1-98) (Saccharomyces cerevisiae, UniProt P11746 1-98); test: EMSA
Mcm1p(1-98);Yox1p(E196H) = Mcm1p(1-98);Yox1p(E196H) (Saccharomyces cerevisiae;Saccharomyces …, UniProt P11746;P34161 1-98;151-274, |E196H); test: EMSA
[4] = molecular target: Mcm1p(1-98);Yox1p(151-274) recombinant (Saccharomyces cerevisiae;Saccharomyces …, UniProt P11746;P34161 1-98;151-274, |); test: EMSA
Mcm1p(1-98);Fkh2p(1-458) [5] = molecular target: T2, Mcm1p(1-98);Fkh2p(1-458) (Saccharomyces cerevisiae;Saccharomyces …, UniProt P11746;P41813 1-98;1-458, |); test: EMSA
[6] = molecular target: T3, Yox1p(151-274) recombinant (Saccharomyces cerevisiae, UniProt P34161 151-274); test: EMSA
T3 sequence: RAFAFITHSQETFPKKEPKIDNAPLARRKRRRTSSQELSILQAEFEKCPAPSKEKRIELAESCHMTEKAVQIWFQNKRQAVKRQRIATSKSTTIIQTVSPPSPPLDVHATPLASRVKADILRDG

[7] = molecular target: Mcm1p(1-96);Fkh2p full length (Saccharomyces cerevisiae;Saccharomyces …, UniProt P11746;P41813 1-96;1-862, |); test: EMSA
Chain of Mcm1p(1-96);Fkh2p full length (P41813 whole entry, one chain of several): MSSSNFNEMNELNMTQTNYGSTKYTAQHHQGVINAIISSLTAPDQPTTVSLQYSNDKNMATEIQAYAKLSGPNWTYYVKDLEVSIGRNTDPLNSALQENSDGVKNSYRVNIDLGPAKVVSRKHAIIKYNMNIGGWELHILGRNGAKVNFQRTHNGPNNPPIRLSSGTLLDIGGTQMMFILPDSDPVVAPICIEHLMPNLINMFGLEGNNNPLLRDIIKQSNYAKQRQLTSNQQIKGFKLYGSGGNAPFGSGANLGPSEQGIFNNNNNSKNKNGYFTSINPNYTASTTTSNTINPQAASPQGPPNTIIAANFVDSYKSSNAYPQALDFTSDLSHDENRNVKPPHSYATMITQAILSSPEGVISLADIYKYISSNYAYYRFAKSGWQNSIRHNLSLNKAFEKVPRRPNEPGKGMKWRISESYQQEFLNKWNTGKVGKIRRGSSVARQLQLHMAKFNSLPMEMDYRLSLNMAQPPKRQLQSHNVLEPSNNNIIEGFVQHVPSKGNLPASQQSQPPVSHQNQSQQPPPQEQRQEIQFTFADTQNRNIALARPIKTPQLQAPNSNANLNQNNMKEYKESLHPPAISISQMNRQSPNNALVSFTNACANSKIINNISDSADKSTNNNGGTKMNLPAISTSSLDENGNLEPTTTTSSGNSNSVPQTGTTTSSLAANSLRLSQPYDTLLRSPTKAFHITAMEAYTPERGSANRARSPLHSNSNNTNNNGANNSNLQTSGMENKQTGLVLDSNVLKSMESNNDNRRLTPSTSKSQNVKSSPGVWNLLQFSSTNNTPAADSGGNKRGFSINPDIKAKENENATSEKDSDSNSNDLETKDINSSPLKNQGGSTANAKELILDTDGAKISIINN

Yox1p(F155A) = molecular target: T4, Yox1p(F155A) (Saccharomyces cerevisiae, UniProt P34161 151-274, F155A); test: EMSA
T4 sequence: T3 sequence with F5A

Yox1p(F153A) = molecular target: T5, Yox1p(F153A) (Saccharomyces cerevisiae, UniProt P34161 151-274, F153A); test: EMSA
T5 sequence: T3 sequence with F3A

Yox1p F163 mutant = molecular target: T6, Yox1p F163 mutant (Saccharomyces cerevisiae, UniProt P34161 151-274, F163A); test: EMSA
T6 sequence: T3 sequence with F13A

[8] = molecular target: Mcm1p(1-98);Yox1p(151-274) (Saccharomyces cerevisiae;Saccharomyces …, UniProt P11746;P34161 1-98;151-274, |); test: EMSA
[9] = molecular target: Mcm1p(1-96);Yox1p(151-274) recombinant;Fkh2p(325-458) (Saccharomyces cerevisiae;Saccharomyces …, UniProt P11746;P34161;P41813 1-96;151-274;325-458, ||); test: EMSA
Fkh2p(325-458) = molecular target: T7, Fkh2p(325-458) (Saccharomyces cerevisiae, UniProt P41813 325-458); test: EMSA
T7 sequence: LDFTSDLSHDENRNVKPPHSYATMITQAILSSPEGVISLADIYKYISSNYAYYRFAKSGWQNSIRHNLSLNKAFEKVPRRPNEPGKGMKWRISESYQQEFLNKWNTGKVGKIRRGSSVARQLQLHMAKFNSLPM

[10] = molecular target: T8, Yox1p(176-274) recombinant (Saccharomyces cerevisiae, UniProt P34161 176-274); test: EMSA
T8 sequence: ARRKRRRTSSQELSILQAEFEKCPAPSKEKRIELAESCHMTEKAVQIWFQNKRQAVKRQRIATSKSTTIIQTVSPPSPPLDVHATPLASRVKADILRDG

[11] = molecular target: Mcm1p(1-96);Yox1p(151-274) recombinant (Saccharomyces cerevisiae;Saccharomyces …, UniProt P11746;P34161 1-96;151-274, |); test: competition
Mcm1p(1-98) [12] = molecular target: T1, Mcm1p(1-98); test: EMSA; remark: listed apart in the source
Mcm1p(1-98);Fkh2p(1-458) [13] = molecular target: T2, Mcm1p(1-98);Fkh2p(1-458); test: EMSA; remark: listed apart in the source
[14] = molecular target: T9, recombinant Flag-tagged Yox1p(151–274) (S. cerevisiae, UniProt P34161 151-274); test: pull-down
T9 sequence (looked up): T3 sequence

Chain of Mcm1p(1-98);Yox1p full length (P34161 whole entry, one chain of several): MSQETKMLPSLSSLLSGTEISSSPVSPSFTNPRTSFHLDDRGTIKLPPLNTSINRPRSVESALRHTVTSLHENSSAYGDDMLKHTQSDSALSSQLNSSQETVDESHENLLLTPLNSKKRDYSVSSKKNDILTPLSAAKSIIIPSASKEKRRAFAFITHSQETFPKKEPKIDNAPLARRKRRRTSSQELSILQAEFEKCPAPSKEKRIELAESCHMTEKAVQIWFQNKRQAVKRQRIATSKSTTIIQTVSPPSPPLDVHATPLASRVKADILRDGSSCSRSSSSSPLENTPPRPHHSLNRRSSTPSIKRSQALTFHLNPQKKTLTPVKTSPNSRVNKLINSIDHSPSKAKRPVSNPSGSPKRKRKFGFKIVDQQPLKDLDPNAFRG

B1: SPO12 WT biotin (dsDNA)
DNA 1: TCGAGGTTAATATCTTTTCCTAATTTGGAAATATGTAAACAGGGC
DNA 2: TCGAGCCCTGTTTACATATTTCCAAATTAGGAAAAGATATTAACC
binding result [1]: binds

B2: SPO12 WT (dsDNA)
DNA 1: B1 DNA 1
DNA 2: B1 DNA 2
binding result [2]: no binding
binding result (Mcm1p(1-98) [3]): binds
binding result (Mcm1p(1-98);Yox1p(E196H)): binds
binding result [4]: binds
binding result (Mcm1p(1-98);Fkh2p(1-458) [5]): binds
binding result [6]: binds
binding result [7]: binds
binding result (Yox1p(F155A)): binds
binding result (Yox1p(F153A)): binds
binding result (Yox1p F163 mutant): binds
binding result [8]: binds
binding result [9]: binds
binding result (Fkh2p(325-458)): binds
binding result [10]: binds
binding result [11]: binds

B3: SPO12 mut (Yox1p site) (dsDNA)
DNA 1: B1 DNA 1 with A10G, T11G
DNA 2: B1 DNA 2 with A39C, T40C
binding result (Mcm1p(1-98) [12]): binds
binding result (Mcm1p(1-98);Fkh2p(1-458) [13]): binds

B4: MBP-Mcm1p(1–96) (domain or fragment, S. cerevisiae, UniProt P11746 1-96, looked up)
chain: MSDIEEGTPTNNGQQKERRKIEIKFIENKTRRHVTFSKRKHGIMKKAFELSVLTGTQVLLLVVSETGLVYTFSTPKFEPIVTQQEGRNLIQACLNA
binding result [14]: binds
